Data as given in PMC5874046, “Interaction of HuDA and PABP at 5'UTR of mouse insulin2 regulates insulin biosynthesis”.

Assays:
His-HuD A [1] = target: T1, His-HuD A (mouse, UniProt Q61701 1-385); experiment: competition; competitor against labeled Ins2L; EMSA: 6% native PAGE, 0.5x TBE, 4°C (binding buffer as in cited work); biotin pull-down: 5 mM Tris pH 7.5, 15 mM KCl, 5 mM MgCl2, 0.25 mM DTT, 10% glycerol, 20; details: protein: recombinant, tags: His
His-HuD D [2] = target: T2, His-HuD D (mouse, UniProt Q61701-10 1-371); experiment: competition; competitor; EMSA: 6% native PAGE, 0.5x TBE, 4°C (binding buffer as in cited work); biotin pull-down: 5 mM Tris pH 7.5, 15 mM KCl, 5 mM MgCl2, 0.25 mM DTT, 10% glycerol, 20; details: protein: recombinant, tags: His
His-HuD A [3] = target: T1, His-HuD A; experiment: competition; competitor against labeled Ins2L; similar to L at low excess, differential at high excess; EMSA: 6% native PAGE, 0.5x TBE, 4°C (binding buffer as in cited work); biotin pull-down: 5 mM Tris pH 7.5, 15 mM KCl, 5 mM MgCl2, 0.25 mM DTT, 10% glycerol, 20; details: protein: recombinant; tags: His; m-fold predicted structure
His-HuD D [4] = target: T2, His-HuD D; experiment: competition; competitor; similar to L at low excess, differential at high excess; EMSA: 6% native PAGE, 0.5x TBE, 4°C (binding buffer as in cited work); biotin pull-down: 5 mM Tris pH 7.5, 15 mM KCl, 5 mM MgCl2, 0.25 mM DTT, 10% glycerol, 20; details: protein: recombinant; tags: His; m-fold predicted structure
His-HuD D [5] = target: T2, His-HuD D; experiment: EMSA; EMSA: 6% native PAGE, 0.5x TBE, 4°C (binding buffer as in cited work); biotin pull-down: 5 mM Tris pH 7.5, 15 mM KCl, 5 mM MgCl2, 0.25 mM DTT, 10% glycerol, 20; details: protein: recombinant; tags: His; label: radiolabel (probe); m-fold predicted structure
GST-HuD B = GST-HuD B (mouse, UniProt Q61701-4 1-380); experiment: as above; details: protein: recombinant; tags: GST; label: radiolabel (probe); m-fold predicted structure
His-HuD A [6] = target: T1, His-HuD A; experiment: as above; details: protein: recombinant; tags: His; label: radiolabel (probe); m-fold predicted structure
His-HuD B = His-HuD B (mouse, UniProt Q61701-4 1-380); experiment: as above; details: protein: recombinant; tags: His; label: radiolabel (probe); m-fold predicted structure
His-HuD B, sequence (Q61701 other isoform, or with tags, fused parts or gaps): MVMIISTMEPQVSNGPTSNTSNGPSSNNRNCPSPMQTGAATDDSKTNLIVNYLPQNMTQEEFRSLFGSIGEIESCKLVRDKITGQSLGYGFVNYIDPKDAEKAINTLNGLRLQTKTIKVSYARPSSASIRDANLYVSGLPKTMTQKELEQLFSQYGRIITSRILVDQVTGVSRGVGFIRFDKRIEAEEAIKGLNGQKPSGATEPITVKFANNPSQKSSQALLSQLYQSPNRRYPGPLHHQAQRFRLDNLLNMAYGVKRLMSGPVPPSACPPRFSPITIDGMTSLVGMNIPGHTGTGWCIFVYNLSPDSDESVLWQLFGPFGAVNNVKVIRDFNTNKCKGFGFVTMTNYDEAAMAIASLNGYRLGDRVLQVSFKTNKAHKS

T2 sequence (Q61701 other isoform, or with tags, fused parts or gaps): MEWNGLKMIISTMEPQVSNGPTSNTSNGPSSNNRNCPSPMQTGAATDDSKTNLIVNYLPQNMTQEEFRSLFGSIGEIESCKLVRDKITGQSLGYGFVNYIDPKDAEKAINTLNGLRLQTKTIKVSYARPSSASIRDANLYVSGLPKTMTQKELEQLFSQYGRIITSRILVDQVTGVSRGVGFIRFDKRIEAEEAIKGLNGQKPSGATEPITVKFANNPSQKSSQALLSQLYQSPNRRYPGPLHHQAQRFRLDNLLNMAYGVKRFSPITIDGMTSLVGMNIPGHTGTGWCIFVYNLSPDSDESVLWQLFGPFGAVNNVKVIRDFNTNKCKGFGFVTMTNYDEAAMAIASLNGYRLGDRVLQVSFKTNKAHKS
T1 sequence (Q61701 whole entry): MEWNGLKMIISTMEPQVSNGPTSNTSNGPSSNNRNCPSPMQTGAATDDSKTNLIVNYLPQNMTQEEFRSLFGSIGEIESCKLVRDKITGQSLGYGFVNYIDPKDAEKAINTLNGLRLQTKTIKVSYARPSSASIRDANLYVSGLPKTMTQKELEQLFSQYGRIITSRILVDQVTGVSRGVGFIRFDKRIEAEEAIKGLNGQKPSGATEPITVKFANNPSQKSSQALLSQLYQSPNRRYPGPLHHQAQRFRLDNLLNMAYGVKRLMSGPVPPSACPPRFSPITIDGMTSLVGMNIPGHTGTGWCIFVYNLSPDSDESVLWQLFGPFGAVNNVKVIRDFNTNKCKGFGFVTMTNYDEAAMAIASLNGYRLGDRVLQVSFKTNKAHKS

B1: L2 (ssRNA)
RNA: GGGUACAAUCAAAAACCAUCAGCAA
binding result (His-HuD A [1]; label: radiolabel (probe)): binds
binding result (His-HuD D [2]; label: radiolabel (probe)): binds

B2: L4 (ssRNA)
RNA: GGGUCUUCCAGGUUAUUGUUUCAAC
binding result (His-HuD A [1]): binds
binding result (His-HuD D [2]): binds

B3: Ins2S 5'UTR (S) (structured_RNA)
RNA: GGGAGCCCUAAGUGAUCCGCUACAAUCAAAAACCAUCAGCAAGCAGGAAGGUUAUUGUUUCAAC
binding result (His-HuD A [3]): binds
binding result (His-HuD D [4]): binds

B4: Ins2L 5'UTR (L) (structured_RNA)
RNA: GGGAGCCCUAAGUGAUCCGCUACAAUCAAAAACCAUCAGCAAGCAGGAAGCCUAUCUUCCAGGUUAUUGUUUCAAC
binding result (His-HuD D [5]): binds
binding result (GST-HuD B): no binding
binding result (His-HuD A [6]): binds
binding result (His-HuD B): no binding
